Read-outs that look alike come from different tables or passages of the source.

Experiment [1] addresses West Nile virus strain USA99b (strain 385-99), whole virus (West Nile virus strain 385-99 (USA99b)). As to the kind of experiment: cell-based or functional assay.
The target is the same in experiment [2]. Description: ELISA on irradiated WNV; IgG1 at 2.500 µg/ml. On the technique in general: ELISA stands for enzyme-linked immunosorbent assay.
Experiment [3] shares this target. Description: ELISA on irradiated WNV; IgG1 at 0.078 µg/ml.
Experiment [4] shares this target. As to the kind of experiment: ELISA on irradiated WNV; IgG1 at 0.310 µg/ml.
Experiment [5] shares this target. As to the kind of experiment: ELISA on irradiated WNV; IgG1 at 0.630 µg/ml.
Experiment [6] shares this target. As to the kind of experiment: ELISA on irradiated WNV; IgG1 at 0.160 µg/ml (printed 0.1.60).
The target is the same in experiment [7].
The target is the same in experiment [8]. As to the kind of experiment: ELISA on irradiated WNV; IgG1 at 0.000 µg/ml (no antibody).
Experiment [9] shares this target. As to the kind of experiment: ELISA on irradiated WNV; IgG1 at 0.039 µg/ml.
Experiment [10] has the same target. Description: ELISA on irradiated WNV; IgG1 at 1.250 µg/ml.
Experiment [11] shares this target. Description: ELISA on irradiated WNV; IgG1 at 5.000 µg/ml.
For experiment [12] the target is unchanged. Description: ELISA on irradiated WNV; IgG1 at 10.000 µg/ml.
Experiment [13] shares this target. As to the kind of experiment: ELISA on irradiated WNV; IgG1 supernatant diluted 1:25.
For experiment [14] the target is unchanged. Description: ELISA on irradiated WNV; IgG1 supernatant diluted 1:5.
Experiment [15] concerns the target West Nile virus SEN90 (strain ArD-76104) (West Nile virus strain ArD-76104). Description: cell-based or functional assay.
For experiment [16], the target named is West Nile virus strain USA99b (strain 385-99), whole virus (West Nile virus strain 385-99 (USA99b)). As to the kind of experiment: cell-based or functional assay. The source holds these as a separate data set.
Experiment [17] concerns the target West Nile virus FRA00 (strain PaAn001) (West Nile virus strain PaAn001). Description: cell-based or functional assay.
In experiment [18] the target is West Nile virus MAD78 (strain DakAnMg798) (West Nile virus strain DakAnMg798). Description: cell-based or functional assay.
For experiment [19], the target named is West Nile virus CAR82 (strain ArB3573/82) (West Nile virus strain ArB3573/82). As to the kind of experiment: cell-based or functional assay.
The target of experiment [20] is West Nile virus TUN97 (strain paH001) (West Nile virus strain paH001). As to the kind of experiment: cell-based or functional assay.
Experiment [21] concerns the target West Nile virus strain USA99b (strain 385-99), whole virus (West Nile virus strain 385-99 (USA99b)). Description: ELISA on irradiated WNV; IgG1 at 20.000 µg/ml.
Experiment [22] has the same target. As to the kind of experiment: ELISA on irradiated WNV; IgG1 supernatant diluted 1:125 (printed 1.125).
Experiment [23] has the same target. The source holds these as a separate data set.

B1: CR4353 (antibody, V domains shown)
VH: QVQLVESGGGVVQPGRSLRLSCAASGFTFSNYAMHWVRQAPGKGLEWVAVISYDGGNKYYADSVKGRFTMSRDNSKNTLYLQMNSLRAEDTAVYYCARDFWSGYSMVDSYYYYMDVWGQGTTVTVSS
VL: ETTLTQSPGTLSLSPGERATLSCRASQSVSNTFLAWYQQKPGQAPRLLIYGASSRATGIPDRFSGSGSGTDFTLTISRLEPEDFAAYYCQQYGSSLTFGPGTKVDIKR
Molecule B1 yielded a PRNT50 in [1] of 0.026 µg/mL. For the same molecule, the PRNT90 in experiment [1] was found to be 36.4 µg/mL. In addition, the OD 492nm in [2] worked out at 1.43 OD 492nm; in experiment [3] it was 0.734 OD 492nm; in experiment [4], 1.17 OD 492nm; in experiment [5], 1.33 OD 492nm; in experiment [6], 1.07 OD 492nm; in experiment [8], 0.003 OD 492nm. Also, the OD 492nm was determined as 0.595 OD 492nm in experiment [9], 1.42 OD 492nm in [10], 1.55 OD 492nm in experiment [11] and 1.57 OD 492nm in experiment [12]. The Kd (in general, the constant that tells how readily two partners part at equilibrium) in experiment [7] worked out at 6.5 nM.

B2: CR4374 (antibody, V domains shown)
VH: QITLKESGPTLVKPTQTLTLTCTFSGFSLSTSGVGVGWIRQPPGKALEWLAVIYWNDDKLYRPSLKSRLTITKDTSKNQVVLTMTKMDPVDTATYYCAHRHRYYDISGYYRLFSDAFDIWGQGTMVTVSS
VL: QSVLTQPPSVSGAPGQRVTISCTGSSSNIGAGYDVHWYQQLPGTAPKLLIYGNSNRPSGVPDRFSGSKSGTSASLAITGLQAEDEADYYCQSYDSSLSGSVFGGGTKLTVLG
Take B2: the PRNT50 was found to be 0.18 µg/mL in [1]; 0.29 in experiment [15]; 0.17 in [16]; 0.11 in experiment [17]; 0.12 in [18]; 0.14 in experiment [19]. This molecule gave a PRNT50 in experiment [20] of 0.03. Moreover, the PRNT90 in experiment [1] came out at 0.95 µg/mL; in experiment [15] it was 3.92; in [16], 0.82; in experiment [17], 1.36; in [18], 4.12; in experiment [19], 2.9. Moreover, the PRNT90 in experiment [20] worked out at 0.22. The OD 492nm in experiment [2] came to 1.58 OD 492nm; in experiment [3], 0.729 OD 492nm; in experiment [4] it was 1.24 OD 492nm; in experiment [5] it was 1.45 OD 492nm; in experiment [13] it was 2.27 OD 492nm; in experiment [14] it was 2.32 OD 492nm. For the same molecule, the OD 492nm in experiment [6] was determined as 0.997 OD 492nm; in experiment [8] it was 0.003 OD 492nm; in experiment [9] it was 0.458 OD 492nm; in [21], 1.69 OD 492nm; in [10] it was 1.5 OD 492nm; in experiment [11], 1.65 OD 492nm. For the same molecule, the OD 492nm in experiment [22] turned out to be 2.12 OD 492nm; in experiment [12], 1.72 OD 492nm. Besides, the Kd in [7] was 56 nM.

B3: CR5088 (antibody, V domains shown)
VH: QITLKESGPTLVKPTQTLTLTCTFSGFSLSTSGVGVGWIRQPPGKALEWLAVIYWNDDKLYRPSLKSRLTITKDTSKNQVVLTMTKMDPVDTATYYCAHRHRYYDISGYYRLFSDAFDIWGQGTMVTVSS
VL: QSVVTQPPSVSGAPGQRITISCTGSSSNIGAGYDVHWYQQLPGTAPKFLIYGNSNRPSGVPDRFSGSKSGTSASLAITGLQAEDEADYYCQSYDSSLSGWVFGGGTKLTVLG
For the molecule B3, in [1], the PRNT50 was found to be 0.017 µg/mL and the PRNT90 was determined as 0.087 µg/mL. The same molecule yielded an equilibrium dissociation constant (Kd) in [23] of 1.7 nM.

B4: CR5080 (antibody, V domains shown)
VH: QITLKESGPTLVKPTQTLTLTCTFSGFSLSTSGVGVGWIRQPPGKALEWLAVIYWNDDKLYRPSLKSRLTITKDTSKNQVVLTMTKMDPVDTATYYCAHRHRYYDISGYYRLFSDAFDIWGQGTMVTVSS
VL: QSVLTQPPSVSGAPGQRVTISCTGSSSNIGAGYDVHWYQQLPGTAPKLLIYGNSNRPSGVPDRFSGSKSGTSASLAITGLQAEDEADYYCQSYDSSLSGWAFGGGTKLTVLG
For the molecule B4, in [1], the PRNT50 was found to be 0.016 µg/mL and the PRNT90 turned out to be 0.08 µg/mL. The molecule also showed a Kd in experiment [23] of 2.7 nM.

B5: CR5085 (antibody, V domains shown)
VH: QITLKESGPTLVKPTQTLTLTCTFSGFSLSTSGVGVGWIRQPPGKALEWLAVIYWNDDKLYRPSLKSRLTITKDTSKNQVVLTMTKMDPVDTATYYCAHRHRYYDISGYYRLFSDAFDIWGQGTMVTVSS
VL: QSVVTQPPSVSGAPGQRVTISCTGSSSNIGAGYDVHWYQQLPGTAPKLLIYGNSNRPSGVPDRFSGSKSGTSASLAITGLQAEDETDYYCQSYDSSLNGWVFGGGTKLTVLG
In the case of B5, in [1], the PRNT50 stood at 0.015 µg/mL and the PRNT90 worked out at 0.077 µg/mL. This molecule also registered a Kd in experiment [23] of 3.7 nM.

B6: CR5074 (antibody, V domains shown)
VH: QITLKESGPTLVKPTQTLTLTCTFSGFSLSTSGVGVGWIRQPPGKALEWLAVIYWNDDKLYRPSLKSRLTITKDTSKNQVVLTMTKMDPVDTATYYCAHRHRYYDISGYYRLFSDAFDIWGQGTMVTVSS
VL: QSVLTQPPSVSGAPGQRVTISCTGSSSNIGTGYDVHWYQQLPGTAPKLLIYADTNRPSGVPDRFSGSKSGTSASLAITGVQAEDEADYYCQSYDTSLTGWVFGGGTKVTVLG
With B6, in [1], the PRNT50 came out at 0.013 µg/mL and the PRNT90 is 0.067 µg/mL. The Kd in experiment [23] was 3.9 nM.

B7: CR4361 (antibody, V domains shown)
VH: EVQLVQSGAEVKKPGESLKISCKASGFSFSTYWIGWVRQMPGKGLEWMGIIYPADSDTRYSPSFQGQVTISADKSISTAYLQWSSLKASDTAMYYCARLRGPYYDFWNGYRETHDAFNVWGQGTMVTVSS
VL: DVVMTQSPDSLAVSLGERATINCKSSQNILDNSDNKNFLAWYQQKPGQPPKLLIYWASARESGVPDRFSGSGSGTDFTLTISSLQAEDVALYYCQQYYNTPITFGQGTRLEIKR
In [1], B7 came in with a PRNT50 of 2.03 µg/mL and a PRNT90 of more than 100 µg/mL.

Values taken from EP1828247B1.
